Measured values from article PMC8389195, “Demyristoylation of the Cytoplasmic Redox Protein Trx-h2 Is Critical for Inducing a Rapid Cold Stress Response in Plants”.

Biological target: MBP-CBF1 (Arabidopsis thaliana, UniProt P93835 1-213)
Experiment: EMSA; NADPH, Trx reductase, Trx-h2 (reduced CBF1); EMSA kit (Thermo Fisher), poly(dI-dC) binding buffer, NADPH/Trx reductase/Trx-h2 system, 6% polyacrylamide gel; proteins dialyzed in 20 mM HEPES-NaOH pH 8.0; salt and temperature not stated
Conditions: protein: recombinant; tags: MBP (N-terminal, pMAL vector); blunt

Sequence of MBP-CBF1 (P93835 whole entry): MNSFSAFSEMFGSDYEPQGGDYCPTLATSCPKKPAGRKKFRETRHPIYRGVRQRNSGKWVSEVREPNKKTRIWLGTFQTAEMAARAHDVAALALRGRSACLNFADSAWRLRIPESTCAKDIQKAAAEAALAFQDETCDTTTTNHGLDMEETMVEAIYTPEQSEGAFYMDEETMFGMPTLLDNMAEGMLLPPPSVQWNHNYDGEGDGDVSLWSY

B1: COR15a promoter CRT/DRE probe (dsDNA)
DNA 1: ATTTCATGGCCGACCTGCTTTTT
DNA 2: AAAAAGCAGGTCGGCCATGAAAT
  binding result: binds
